According to patent publication US20150258192A1, “COMPOSITIONS AND METHODS FOR PREVENTING OR TREATING CHRONIC LUNG ALLOGRAFT DYSFUNCTION (CLAD) AND IDIOPATHIC PULMONARY FIBROSIS (IPF)” (priority 2014, published 2015):
No end group written: not given here.

What follows are sequences tested against Rsk2(h) (Homo sapiens, UniProt P51812) (assay: Kinase Profiling Assay). Settings: peptide 100 μM.
Format: biochemical
Procedure, shortened: (§1)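 Activity remaining relative to an uninhibited control was determined by scintillation counting of labeled substrate bound to a negatively charged filter. Radiolabeled phosphate came from ATP; the substrate carried positive charge. Duplicate measurements, within a 266-kinase human panel.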

Chain of Rsk2(h) (P51812 whole entry): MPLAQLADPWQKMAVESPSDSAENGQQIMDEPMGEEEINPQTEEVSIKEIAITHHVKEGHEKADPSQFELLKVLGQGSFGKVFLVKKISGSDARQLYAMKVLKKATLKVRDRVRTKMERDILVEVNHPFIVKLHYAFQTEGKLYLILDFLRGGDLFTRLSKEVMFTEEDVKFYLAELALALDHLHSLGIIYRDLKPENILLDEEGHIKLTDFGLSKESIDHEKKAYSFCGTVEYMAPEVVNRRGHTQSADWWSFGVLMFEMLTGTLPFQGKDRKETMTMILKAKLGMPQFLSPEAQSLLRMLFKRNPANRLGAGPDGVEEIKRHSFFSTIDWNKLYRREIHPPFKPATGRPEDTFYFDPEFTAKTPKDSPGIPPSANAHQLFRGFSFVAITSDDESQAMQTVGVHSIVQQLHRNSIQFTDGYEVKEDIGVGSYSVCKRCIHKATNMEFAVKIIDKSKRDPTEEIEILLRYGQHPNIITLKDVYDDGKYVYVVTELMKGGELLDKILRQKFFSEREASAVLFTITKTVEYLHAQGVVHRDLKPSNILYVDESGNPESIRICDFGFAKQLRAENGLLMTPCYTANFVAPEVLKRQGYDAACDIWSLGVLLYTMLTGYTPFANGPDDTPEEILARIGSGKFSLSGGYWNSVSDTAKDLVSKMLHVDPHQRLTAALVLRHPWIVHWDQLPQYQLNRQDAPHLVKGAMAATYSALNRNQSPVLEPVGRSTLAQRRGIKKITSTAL

Sequence	% activity [%]
FAKLAARLYRKALARQLGVAA [MMI-0300]	51
HRRIKAWLKKIKALARQLGVAA (Mammal) [MMI-0500]	14
KAFAKLAARLYRKALARQLGVAA [MMI-0400]	38
YARAAARQARAKALNRQLGVA (Mammal) [MMI-0200]	101

Each sequence was assayed against T1, EphA8(h) (Homo sapiens, UniProt P29322) (assay: Kinase Profiling Assay). Settings: peptide 100 μM.
T1 sequence (P29322 28-1005): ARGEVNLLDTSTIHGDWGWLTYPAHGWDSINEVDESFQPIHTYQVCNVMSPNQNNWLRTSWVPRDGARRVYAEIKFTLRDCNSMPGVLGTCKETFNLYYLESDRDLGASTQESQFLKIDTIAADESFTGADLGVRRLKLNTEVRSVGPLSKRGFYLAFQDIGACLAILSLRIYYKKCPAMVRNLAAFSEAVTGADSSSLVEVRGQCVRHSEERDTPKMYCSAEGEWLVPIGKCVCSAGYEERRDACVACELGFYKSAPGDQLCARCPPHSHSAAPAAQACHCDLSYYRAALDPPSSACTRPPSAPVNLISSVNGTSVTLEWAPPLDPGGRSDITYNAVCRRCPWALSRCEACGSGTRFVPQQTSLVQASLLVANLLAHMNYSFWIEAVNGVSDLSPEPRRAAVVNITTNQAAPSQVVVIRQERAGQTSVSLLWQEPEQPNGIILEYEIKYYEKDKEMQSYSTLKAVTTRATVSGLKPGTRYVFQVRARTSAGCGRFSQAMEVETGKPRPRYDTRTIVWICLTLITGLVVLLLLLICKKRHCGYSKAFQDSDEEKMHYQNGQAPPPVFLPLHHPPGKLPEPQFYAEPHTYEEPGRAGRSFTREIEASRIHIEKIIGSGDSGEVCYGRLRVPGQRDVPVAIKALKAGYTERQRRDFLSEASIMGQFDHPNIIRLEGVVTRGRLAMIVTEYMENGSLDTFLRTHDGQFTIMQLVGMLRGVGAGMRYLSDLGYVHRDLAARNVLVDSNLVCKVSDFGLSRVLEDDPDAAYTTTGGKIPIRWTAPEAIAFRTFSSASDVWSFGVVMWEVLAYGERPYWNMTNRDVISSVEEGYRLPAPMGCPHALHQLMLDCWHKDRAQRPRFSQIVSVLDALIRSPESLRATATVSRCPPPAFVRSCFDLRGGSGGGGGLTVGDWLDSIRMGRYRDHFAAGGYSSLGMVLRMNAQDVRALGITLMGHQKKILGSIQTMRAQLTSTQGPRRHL
Format: biochemical
Procedure, shortened: as §1

Sequence	% activity [%]
FAKLAARLYRKALARQLGVAA [MMI-0300]	93
HRRIKAWLKKIKALARQLGVAA (Mammal) [MMI-0500]	337
KAFAKLAARLYRKALARQLGVAA [MMI-0400]	146
YARAAARQARAKALARQLGVAA [MMI-0100]	181
YARAAARQARAKALNRQLGVA (Mammal) [MMI-0200]	133

The sequences below were run against EphA5(h) (Homo sapiens, UniProt P54756) (assay: Kinase Profiling Assay). Settings: peptide 100 μM.
Format: biochemical
Procedure, shortened: as §1

Chain of EphA5(h) (P54756 25-1037): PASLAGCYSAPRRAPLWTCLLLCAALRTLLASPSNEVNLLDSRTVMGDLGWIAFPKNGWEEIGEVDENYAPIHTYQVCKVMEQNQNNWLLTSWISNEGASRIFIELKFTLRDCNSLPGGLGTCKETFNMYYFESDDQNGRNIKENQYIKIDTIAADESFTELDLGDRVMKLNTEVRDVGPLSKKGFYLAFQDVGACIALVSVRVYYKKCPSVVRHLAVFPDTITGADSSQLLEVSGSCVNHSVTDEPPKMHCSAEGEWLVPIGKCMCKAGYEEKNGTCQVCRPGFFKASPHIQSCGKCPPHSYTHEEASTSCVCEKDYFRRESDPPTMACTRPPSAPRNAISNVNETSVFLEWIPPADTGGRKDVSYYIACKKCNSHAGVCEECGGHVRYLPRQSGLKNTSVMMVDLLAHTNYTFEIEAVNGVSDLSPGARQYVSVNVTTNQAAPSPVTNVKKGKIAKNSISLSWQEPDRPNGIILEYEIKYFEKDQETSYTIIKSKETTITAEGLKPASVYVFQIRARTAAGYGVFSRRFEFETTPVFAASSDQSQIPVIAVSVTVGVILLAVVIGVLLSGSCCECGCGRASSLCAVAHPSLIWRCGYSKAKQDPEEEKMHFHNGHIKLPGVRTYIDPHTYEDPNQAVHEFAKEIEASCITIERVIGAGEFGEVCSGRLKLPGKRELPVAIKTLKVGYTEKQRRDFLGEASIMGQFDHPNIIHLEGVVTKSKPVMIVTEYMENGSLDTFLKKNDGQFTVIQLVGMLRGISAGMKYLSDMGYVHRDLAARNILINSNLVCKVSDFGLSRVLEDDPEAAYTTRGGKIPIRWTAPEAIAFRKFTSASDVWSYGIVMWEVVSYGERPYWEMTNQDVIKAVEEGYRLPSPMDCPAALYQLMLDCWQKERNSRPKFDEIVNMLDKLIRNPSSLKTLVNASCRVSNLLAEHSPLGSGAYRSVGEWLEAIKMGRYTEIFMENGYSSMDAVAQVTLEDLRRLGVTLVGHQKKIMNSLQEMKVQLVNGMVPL

Sequence	% activity [%]
FAKLAARLYRKALARQLGVAA [MMI-0300]	18
HRRIKAWLKKIKALARQLGVAA (Mammal) [MMI-0500]	42
KAFAKLAARLYRKALARQLGVAA [MMI-0400]	24
YARAAARQARAKALARQLGVAA [MMI-0100]	110
YARAAARQARAKALNRQLGVA (Mammal) [MMI-0200]	123

These sequences were tested against T2, Mer(h) (Homo sapiens, UniProt Q12866) (assay: Kinase Profiling Assay). Settings: peptide 100 μM.
T2 construct: purchased Millipore
T2 sequence (Q12866 21-999): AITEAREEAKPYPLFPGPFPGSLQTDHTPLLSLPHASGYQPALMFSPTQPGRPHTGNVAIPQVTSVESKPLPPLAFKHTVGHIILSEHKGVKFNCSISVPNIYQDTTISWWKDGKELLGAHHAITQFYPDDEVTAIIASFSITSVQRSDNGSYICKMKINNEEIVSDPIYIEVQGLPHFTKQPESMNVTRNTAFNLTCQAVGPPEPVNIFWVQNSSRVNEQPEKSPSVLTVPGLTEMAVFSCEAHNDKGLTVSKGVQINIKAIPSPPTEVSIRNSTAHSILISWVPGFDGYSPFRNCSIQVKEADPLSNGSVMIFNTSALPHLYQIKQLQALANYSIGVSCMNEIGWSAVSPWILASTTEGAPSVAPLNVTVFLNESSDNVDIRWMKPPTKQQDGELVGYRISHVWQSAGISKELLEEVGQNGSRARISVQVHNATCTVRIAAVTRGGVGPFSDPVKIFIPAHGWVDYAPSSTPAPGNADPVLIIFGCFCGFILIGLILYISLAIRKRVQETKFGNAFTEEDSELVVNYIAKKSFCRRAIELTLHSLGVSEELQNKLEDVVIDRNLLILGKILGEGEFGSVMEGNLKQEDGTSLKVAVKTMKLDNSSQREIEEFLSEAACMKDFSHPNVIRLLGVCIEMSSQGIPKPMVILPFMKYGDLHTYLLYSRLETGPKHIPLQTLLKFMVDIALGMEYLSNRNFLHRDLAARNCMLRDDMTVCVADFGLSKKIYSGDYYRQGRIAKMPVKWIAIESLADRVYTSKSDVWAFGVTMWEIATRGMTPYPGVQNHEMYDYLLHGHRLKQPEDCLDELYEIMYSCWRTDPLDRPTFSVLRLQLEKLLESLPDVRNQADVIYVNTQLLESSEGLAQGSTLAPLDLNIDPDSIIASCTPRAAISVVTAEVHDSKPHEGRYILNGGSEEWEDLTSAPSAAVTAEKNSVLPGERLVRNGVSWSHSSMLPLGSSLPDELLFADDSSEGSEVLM
Format: biochemical
Procedure, shortened: as §1

Sequence	% activity [%]
FAKLAARLYRKALARQLGVAA [MMI-0300]	52
HRRIKAWLKKIKALARQLGVAA (Mammal) [MMI-0500]	17
KAFAKLAARLYRKALARQLGVAA [MMI-0400]	50
YARAAARQARAKALARQLGVAA [MMI-0100]	47
YARAAARQARAKALNRQLGVA (Mammal) [MMI-0200]	90

The sequences below were run against T3, PrKX(h) (Homo sapiens, UniProt P51817) (assay: Kinase Profiling Assay). Settings: peptide 100 μM.
T3 sequence (P51817 1-358): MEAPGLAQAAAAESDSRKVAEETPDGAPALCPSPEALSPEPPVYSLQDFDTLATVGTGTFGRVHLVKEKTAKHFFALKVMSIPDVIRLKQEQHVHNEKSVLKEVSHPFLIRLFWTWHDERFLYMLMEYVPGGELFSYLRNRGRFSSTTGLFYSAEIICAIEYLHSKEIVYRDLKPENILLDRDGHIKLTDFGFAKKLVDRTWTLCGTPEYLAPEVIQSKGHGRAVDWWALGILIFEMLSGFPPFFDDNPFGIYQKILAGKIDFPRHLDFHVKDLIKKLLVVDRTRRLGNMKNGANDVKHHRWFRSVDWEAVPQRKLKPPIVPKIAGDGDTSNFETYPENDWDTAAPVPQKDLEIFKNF
Format: biochemical
Procedure, shortened: as §1

Sequence	% activity [%]
FAKLAARLYRKALARQLGVAA [MMI-0300]	61
HRRIKAWLKKIKALARQLGVAA (Mammal) [MMI-0500]	57
KAFAKLAARLYRKALARQLGVAA [MMI-0400]	76
YARAAARQARAKALARQLGVAA [MMI-0100]	84
